Measured values: US20230338565A1, “ANTIBODY DRUG CONJUGATE, PREPARATION METHOD THEREFOR AND USE THEREOF” (SICHUAN KELUN-BIOTECH BIOPHARMACEUTICAL CO., LTD., priority 2020, published 2023)
Positions count from the first letter of the chain named.

B1: humanized antibody 2C6.9-hz21 (antibody, human IgG1, kappa, V domains shown)
VH: QVQLQESGPGLVKPSETLSLTCTVSGFSLTRYGVSWIRQPPGKGLEWIGVIWGEGNTNYNPSLKSRVTISKDSSKSQVSLKLSSVTAADTAVYYCARVNFGNALDYWGQGTLVTVSS
VL: DIVMTQSPDSLAVSLGERATINCKSSQSLLNSGNQKNYLTWYQQKPGQPPKLLIYWASTRDSGVPDRFSGSGSGTDFTLTISSLQAEDVAVYYCQNDFIFPLTFGGGTKVEIKR
notes: Humanized from murine 2C6.9M; Expressed in Expi293F cells and purified on protein A; also called 2C6.9 mAb; humanized monoclonal antibody 2C6.9
B2: humanized antibody 2C6.9-hz11 (antibody, human IgG1, kappa, V domains shown)
VH: B1 VH with E54D
VL: B1 VL
notes: Human IgG1 / kappa
B3: IMAB362 (antibody, V domains shown)
VH: QVQLQQPGAELVRPGASVKLSCKASGYTFTSYWINWVKQRPGQGLEWIGNIYPSDSYTNYNQKFKDKATLTVDKSSSTAYMQLSSPTSEDSAVYYCTRSWRGNSFDYWGQGTTLTVSS
VL: DIVMTQSPSSLTVTAGEKVTMSCKSSQSLLNSGNQKNYLTWYQQKPGQPPKLLIYWASTRESGVPDRFTGSGSGTDFTLTISSVQAEDLAVYYCQNDYSYPFTFGSGTKLEIKR

Tests used:
[1] = test system: HEK293T-Claudin 18.2 cells; experiment: ADCC, NK cell mediated killing assay; format: cell-based, human; conditions: NK92MI-CD16a effector cells, LDH detection
Experimental: 2C6.9 belongs to IgG1 subtype and has relative strong antibody-dependent cell-mediated cytotoxicity (ADCC). NK cell mediated killing assay was used to determine the ADCC activity of 2C6.9. The specific procedures were as follows: HEK293T-Claudin 18.2 cells were harvested and centrifuged, followed by adjustment of cell density. 1×10^4/well of cells were plated on a plate and incubated overnight. The medium was removed on the next day. NK92MI-CD16a cells (Huabo Biopharm) were centrifuged, resuspended in MEMA medium and adjusted to 1×10^6/mL, then 50 μL/well cells were added to the corresponding wells. 2C6.9-hz21 and IMAB362 antibodies were diluted with MEMA medium. For HEK293T-Claudin18.2 cells, 10 antibody concentrations were tested, starting from 40 μg/mL with 5-fold dilution. For NUGC-4 cells, 11 antibody concentrations were tested, starting from 2 mg/mL with 5-fold dilution. 50 μL/well of the diluted antibodies were added to the corresponding wells and the reactions were left to stand in incubator at 37° C., 5% CO2 and incubated for 5.5 h. Lysis buffer was then added to the positive control well and incubated for another 0.5 h. 50 μL/well of Lactate Dehydrogenase (LDH) detection agent (DOJINDO LABORATORISE, CK12) were added to the wells and the absorbance at 490 nm were taken every 10 min on a microplate reader (MD, SpectraMax M2). […]

[2] = target: T1, human Claudin 18.2 on cell membrane (Homo sapiens, UniProt P56856); experiment: Affinity to HEK293T-Claudin 18.2 by flow cytometry; conditions: binding to HEK293T-Claudin 18.2 cells
T1 construct: expressed in transfected cells
Experimental: (§1) The affinity of 2C6.9-hz21 to human Claudin 18.2 on cell membrane was detected using HEK293T-Claudin 18.2 cells. The specific procedures were as follows: HEK293T-Claudin 18.2 cells were detached and centrifuged, followed by being washed twice with PBS. And then the cells were resuspended in PBS containing 1% BSA and were plated into a 96-well tip bottom plate at 300000 cells per well in a volume of 50 μl for 20 wells in total. […] of 2C6.9-hz21 and IMAB362 antibody were separately then added with 11 concentrations starting from 1000 nM with three-fold dilution to each well. Human IgG was served as negative control. The reactions were mixed well and incubated for 1 h at 4° C. in the dark, followed by three times of washing with PBS, the FITC-labelled anti-human Fc secondary antibody (Biolegend, 409322) was added and incubated for 0.5 h at 4° C. in the dark. Detection was performed by flow cytometry (Beckman, Cytoflex) after being washed for three times with PBS.

human Claudin 18.2 = target: T2, human Claudin 18.2 (Homo sapiens, UniProt P56856); experiment: Cell ELISA on L929-Claudin 18.2 cells; conditions: binding to L929-Claudin 18.2 cells, Cellular ELISA
T2 construct: expressed in transfected cells; cells formaldehyde-fixed for the cell ELISA
Experimental: Human Claudin18.2 belongs to the tetraspanin family and has a complex structure. Cell ELISA was thus carried out to maintain the structure of Claudin18.2. The stable cell lines L929-Claudin 18.2 constructed in 6.1 were used for detection. Specifically, L929-Claudin 18.2 adherent cells were detached by 2 mM EDTA treatment. The cells were resuspended and adjusted to 2×10^5/mL and 100 μL of the resuspension was plated into a 96-well plate and incubated overnight at 37° C. The next day, the media was removed, and the plate was washed with PBS once. 100 μL/well 4% formaldehyde was added to the plate. After 30 min of incubation at room temperature, formaldehyde was removed, followed by being washed twice with PBS. Blocking buffer (PBS containing 2% BSA) was then added to the plate at 100 μL/well, and incubated at 37° C. for 2 h. After removal of blocking buffer, 100 μL/well of serially diluted antibodies (starting from 1 μM, with 4-fold dilution, for a total of 11 concentrations) were added to the corresponding wells, which were incubated at 37° C. for 2 h afterwards. The plate was washed with 250 μL PBST for 5 times, and was allowed to stand for 2 min each time. […] The OD450 nm absorbance values were obtained on a plate reader (MD, SpectraMax M2) and the results were subjected to curve fitting by Graphpad Prism. […]

human Claudin18.2 [3] = target: T3, human Claudin18.2 (human, UniProt P56856-2 1-261); experiment: cell-based or functional assay
human Claudin18.2 [4] = target: T3, human Claudin18.2; experiment: flow cytometry on HEK293T-Claudin 18.2 cells, FITC anti-human Fc secondary antibody
Experimental: as §1, with “The” for “The affinity of 2C6.9-hz21 to human Claudin 18.2 on cell membrane was detected using HEK293T-Claudin 18.2 cells. The”

human Claudin18.1 = target: T4, human Claudin18.1 (human, UniProt P56856 1-261); experiment: flow cytometry on HEK293T-human Claudin 18.1 cells, FITC anti-human Fc secondary antibody
T4 construct: whole, on cells
Experimental: The specificity of candidate antibodies was detected by FACS. […] After being washed twice with PBS, the cells were resuspended with PBS containing 1% BSA. 300000 cells for each cell line were added with the candidate antibodies at a final concentration of 1000 nM, mixed well, and incubated for 1 h at 4° C., protected from light. Then the cells were washed for three times with PBS and FITC-labeled anti-human Fc secondary antibody (BioLegend, 409322) was added, followed by 0.5 h of incubation at 4° C. in the dark. Detection was performed by flow cytometry (Beckman, Cytoflex) after being washed with PBS for three times.

human Claudin18.2 [5] = target: T3, human Claudin18.2; experiment: cell-based or functional assay; remark: listed apart in the source
human Claudin18.2 [6] = target: T3, human Claudin18.2; experiment: cell ELISA on formaldehyde-fixed L929-Claudin 18.2 cells, HRP anti-human IgG
Experimental: (§2) Human Claudin18.2 belongs to the tetraspanin family and has a complex structure. Cell ELISA was thus carried out to maintain the structure of Claudin18.2. […] The cells were resuspended and adjusted to 2×10⁵/mL and 100 μL of the resuspension was plated into a 96-well plate and incubated overnight at 37° C. The next day, the media was removed, and the plate was washed with PBS once. 100 μL/well 4% formaldehyde was added to the plate. After 30 min of incubation at room temperature, formaldehyde was removed, followed by being washed twice with PBS. Blocking buffer (PBS containing 2% BSA) was then added to the plate at 100 μL/well, and incubated at 37° C. for 2 h. After removal of blocking buffer, 100 μL/well of serially diluted antibodies (starting from 1 μM, with 4-fold dilution, for a total of 11 concentrations) were added to the corresponding wells, which were incubated at 37° C. for 2 h afterwards. The plate was washed with 250 μL PBST for 5 times, and was allowed to stand for 2 min each time. 100 μL/well of horseradish peroxidase labeled anti-Human IgG secondary antibody (HRP-anti-Human IgG, Jackson ImmunoResearch, 109-035-003) diluted 1:10000 in PBS (containing 2% BSA) was added to the plate. […] The OD450 nm absorbance values were obtained on a plate reader (MD, SpectraMax M2) and the results were subjected to curve fitting by Graphpad Prism.

human Claudin18.2 [7] = target: T3, human Claudin18.2; experiment: cell-based or functional assay; remark: listed apart in the source
human Claudin18.2 [8] = target: T3, human Claudin18.2; experiment: cell ELISA on L929-Claudin 18.2 cells
Experimental: as §2

Row | Molecule | Max. cytotoxicity (%) [1] | Max MFI [2] | Max signal value (OD450) (human Claudin 18.2) | 4-hour internalization ratio on NUGC-4 cells (flow cytometry) (human Claudin18.2 [3]) | EC50 (human Claudin18.2 [4]) | binding result (human Claudin18.1) | ADCC activity, EC50 value (human Claudin18.2 [5]) | EC50 (human Claudin18.2 [6]) | CDC activity, EC50 value (human Claudin18.2 [7]) | binding result (human Claudin18.2 [8])
1 | IMAB362: control anti-Claudin 18.2 antibody, sequences from patent CN 101312989 B [reference compound] | 20% | 156715.7 | 0.53 |  |  |  |  |  |  | 
2 | B1 |  |  |  | 37.8% | 5.77 nM | no binding (tested: 1000 nM) | 67.7 ng/mL | 0.12 nM | 1360 ng/mL | 
3 | B2 |  |  |  |  |  |  |  |  |  | binds
4 | B3 |  |  |  |  | 8.22 nM |  | 57.7 ng/mL | 0.15 nM | 3320 ng/mL | 
